The text below walks through data of publication PMC5404835.

The assay concerns the target C-peptide-mCherry generated from RINS1 (human). Briefly: western blot of cell lysate (band size); lysates of MIN6 cells expressing RINS1 (lysis buffer 10 mM Tris/Cl pH 7.5, 150 mM NaCl, 0.5 mM EDTA, 0.5% NP-40), NuPAGE 4-12% Bis-Tris gel, anti-mCherry antibody.

In turn, “C-peptide-mCherry generated from RINS1 (domain or fragment)” yielded a stoichiometry N of 2.
